This note sets out measurements from article PMC13379236 (Cell reports, 2026).

In assay [1] the target is ZYG11B-EloBC (Homo sapiens, UniProt Q9C0D3). The assay is described as follows: MBP pull-down with substrate receptor module ZYG11B-EloBC. It counts as binding. To be noted: R466A mutation of ZYG11B, recombinant purified proteins, Figure S9A. How it is done: Peptides corresponding to […] and […] were appended to the N terminus of maltose-binding protein (MBP) and cloned into pET-28a containing an N-terminal His6 tag followed by a TEV protease cleavage site. Fusion proteins were purified by Ni-NTA chromatography, digested with TEV protease, and passed over Ni-NTA resin again to remove TEV and the cleaved His6 tag. Final purification was performed by size-exclusion chromatography. The resulting proteins contained MBP fused to N-terminal Gly/N-degron overhangs. For pulldown experiments, approximately 100 μg MBP fusion protein was immobilized on 50 μL amylose resin and incubated with prey protein at a 1:1 molar ratio for 1 h at 4°C. Resin was washed three times, and bound proteins were eluted in sizing buffer supplemented with 20 mM maltose. Samples were analyzed by SDS-PAGE and Coomassie staining. Pulldown efficiency was quantified as the ratio of MBP–NLRP1 degron signal to ZYG11B signal in the same gel lane. […]
Sequence of ZYG11B-EloBC (Q9C0D3 whole entry, the tested form may be a part): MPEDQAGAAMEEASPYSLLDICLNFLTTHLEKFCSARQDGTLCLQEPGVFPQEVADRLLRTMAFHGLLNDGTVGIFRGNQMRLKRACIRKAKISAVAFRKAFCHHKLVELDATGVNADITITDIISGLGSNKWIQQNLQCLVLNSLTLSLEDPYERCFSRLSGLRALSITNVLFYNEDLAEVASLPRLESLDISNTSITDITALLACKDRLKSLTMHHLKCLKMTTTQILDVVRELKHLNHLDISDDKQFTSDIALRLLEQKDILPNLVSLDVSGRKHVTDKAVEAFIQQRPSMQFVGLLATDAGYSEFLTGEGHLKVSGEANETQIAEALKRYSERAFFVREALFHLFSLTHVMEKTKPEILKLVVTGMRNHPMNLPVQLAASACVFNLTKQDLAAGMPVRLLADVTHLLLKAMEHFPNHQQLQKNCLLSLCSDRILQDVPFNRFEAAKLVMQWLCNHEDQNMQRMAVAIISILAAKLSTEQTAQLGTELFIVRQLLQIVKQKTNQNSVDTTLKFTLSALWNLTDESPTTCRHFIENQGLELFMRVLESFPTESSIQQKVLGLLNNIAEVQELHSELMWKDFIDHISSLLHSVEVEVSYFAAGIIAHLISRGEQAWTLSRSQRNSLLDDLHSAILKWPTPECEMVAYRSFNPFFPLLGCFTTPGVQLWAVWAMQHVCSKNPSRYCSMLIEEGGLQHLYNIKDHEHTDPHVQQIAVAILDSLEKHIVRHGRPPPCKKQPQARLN
Sequence of ZYG11B-EloBC (Q15370 whole entry partner, the tested form may be a part): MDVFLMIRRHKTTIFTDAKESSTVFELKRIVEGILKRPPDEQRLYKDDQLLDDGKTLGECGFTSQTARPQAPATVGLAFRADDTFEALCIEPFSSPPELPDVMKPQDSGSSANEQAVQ
Sequence of ZYG11B-EloBC (Q15369 17-112 partner limits assumed): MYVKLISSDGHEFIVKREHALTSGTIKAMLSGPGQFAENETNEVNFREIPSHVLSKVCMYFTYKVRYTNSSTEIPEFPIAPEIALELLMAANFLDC
incubation of full-length Cyclin B1 without Gly/N-degron with ZYG11B–EloBC (top). SDS–PAGE analysis of the indicated fractions from the Superose 6 column (dashed lines) confirms complex formation (bottom) C, fluorescence anisotropy binding of ZYG11B-EloBC to indicated fluorescein-labeled peptides (left) and fitted equilibrium dissociation constants (right). […]

The test system of assay [2] is NLRP1 inflammasome. It counts as cell-based, human.

B1: NLRP1 Gly/N-degron: C-terminal fragment generated by 3C cleavage, which exposes the Gly/N-degron, begins at glycine-131 (protein)
chain: GSERRVLRQLPDTSGRRWREISASLLYQALPSSPDHESPSQESPNAPTSTAVLGSWGSPPQPSLAPREQEAPGTQWPLDETSGIYYTEIREREREKSEKGRPPWAAVVGTPPQAHTSLQPHHHPWEPSVRESLCSTWPWKNEDFNQKFTQLLLLQRPHPRSQDPLVKRSWPDYVEENRGHLIEIRDLFGPGLDTQEPRIVILQGAAGIGKSTLARQVKEAWGRGQLYGDRFQHVFYFSCRELAQSKVVSLAELIGKDGTATPAPIRQILSRPERLLFILDGVDEPGWVLQEPSSELCLHWSQPQPADALLGSLLGKTILPEASFLITARTTALQNLIPSLEQARWVEVLGFSESSRKEYFYRYFTDERQAIRAFRLVKSNKELWALCLVPWVSWLACTCLMQQMKRKEKLTLTSKTTTTLCLHYLAQALQAQPLGPQLRDLCSLAAEGIWQKKTLFSPDDLRKHGLDGAIISTFLKMGILQEHPIPLSYSFIHLCFQEFFAAMSYVLEDEKGRGKHSNCIIDLEKTLEAYGIHGLFGASTTRFLLGLLSDEGEREMENIFHCRLSQGRNLMQWVPSLQLLLQPHSLESLHCLYETRNKTFLTQVMAHFEEMGMCVETDMELLVCTFCIKFSRHVKKLQLIEGRQHRSTWSPTMVVLFRWVPVTDAYWQILFSVLKVTRNLKELDLSGNSLSHSAVKSLCKTLRRPRCLLETLRLAGCGLTAEDCKDLAFGLRANQTLTELDLSFNVLTDAGAKHLCQRLRQPSCKLQRLQLVSCGLTSDCCQDLASVLSASPSLKELDLQQNNLDDVGVRLLCEGLRHPACKLIRLGLDQTTLSDEMRQELRALEQEKPQLLIFSRRKPSVMTPTEGLDTGEMSNSTSSLKRQRLGSERAASHVAQANLKLLDVSKIFPIAEIAEESSPEVVPVELLCVPSPASQGDLHTKPLGTDDDFWGPTGPVATEVVDKEKNLYRVHFPVAGSYRWPNTGLCFVMREAVTVEIEFCVWDQFLGEINPQHSWMVAGPLLDIKAEPGAVEAVHLPHFVALQGGHVDTSLFQMAHFKEEGMLLEKPARVELHHIVLENPSFSPLGVLLKMIHNALRFIPVTSVVLLYHRVHPEEVTFHLYLIPSDCSIRKAIDDLEMKFQFVRIHKPPPLTPLYMGCRYTVSGSGSGMLEILPKELELCYRSPGEDQLFSEFYVGHLGSGIRLQVKDKKDETLVWEALVKPGDLMPATTLIPPARIAVPSPLDAPQLLHFVDQYREQLIARVTSVEVVLDKLHGQVLSQEQYERVLAENTRPSQMRKLFSLSQSWDRKCKDGLYQALKETHPHLIMELWEKGSKKGLLPLSS
B1: in assay [1], the “binding to ZYG11B-EloBC R466A mutant versus WT” value was “relatively strong reduction”.

B2: E133K: E133K mutation of NLRP1 (residue E3 of the Gly/N-degron) (protein)
chain: GSKRRVLRQLPDTSGRRWREISASLLYQALPSSPDHESPSQESPNAPTSTAVLGSWGSPPQPSLAPREQEAPGTQWPLDETSGIYYTEIREREREKSEKGRPPWAAVVGTPPQAHTSLQPHHHPWEPSVRESLCSTWPWKNEDFNQKFTQLLLLQRPHPRSQDPLVKRSWPDYVEENRGHLIEIRDLFGPGLDTQEPRIVILQGAAGIGKSTLARQVKEAWGRGQLYGDRFQHVFYFSCRELAQSKVVSLAELIGKDGTATPAPIRQILSRPERLLFILDGVDEPGWVLQEPSSELCLHWSQPQPADALLGSLLGKTILPEASFLITARTTALQNLIPSLEQARWVEVLGFSESSRKEYFYRYFTDERQAIRAFRLVKSNKELWALCLVPWVSWLACTCLMQQMKRKEKLTLTSKTTTTLCLHYLAQALQAQPLGPQLRDLCSLAAEGIWQKKTLFSPDDLRKHGLDGAIISTFLKMGILQEHPIPLSYSFIHLCFQEFFAAMSYVLEDEKGRGKHSNCIIDLEKTLEAYGIHGLFGASTTRFLLGLLSDEGEREMENIFHCRLSQGRNLMQWVPSLQLLLQPHSLESLHCLYETRNKTFLTQVMAHFEEMGMCVETDMELLVCTFCIKFSRHVKKLQLIEGRQHRSTWSPTMVVLFRWVPVTDAYWQILFSVLKVTRNLKELDLSGNSLSHSAVKSLCKTLRRPRCLLETLRLAGCGLTAEDCKDLAFGLRANQTLTELDLSFNVLTDAGAKHLCQRLRQPSCKLQRLQLVSCGLTSDCCQDLASVLSASPSLKELDLQQNNLDDVGVRLLCEGLRHPACKLIRLGLDQTTLSDEMRQELRALEQEKPQLLIFSRRKPSVMTPTEGLDTGEMSNSTSSLKRQRLGSERAASHVAQANLKLLDVSKIFPIAEIAEESSPEVVPVELLCVPSPASQGDLHTKPLGTDDDFWGPTGPVATEVVDKEKNLYRVHFPVAGSYRWPNTGLCFVMREAVTVEIEFCVWDQFLGEINPQHSWMVAGPLLDIKAEPGAVEAVHLPHFVALQGGHVDTSLFQMAHFKEEGMLLEKPARVELHHIVLENPSFSPLGVLLKMIHNALRFIPVTSVVLLYHRVHPEEVTFHLYLIPSDCSIRKAIDDLEMKFQFVRIHKPPPLTPLYMGCRYTVSGSGSGMLEILPKELELCYRSPGEDQLFSEFYVGHLGSGIRLQVKDKKDETLVWEALVKPGDLMPATTLIPPARIAVPSPLDAPQLLHFVDQYREQLIARVTSVEVVLDKLHGQVLSQEQYERVLAENTRPSQMRKLFSLSQSWDRKCKDGLYQALKETHPHLIMELWEKGSKKGLLPLSS
Consider B2, for which the “inflammasome activation of NLRP1 mutant upon HRV 3Cpro” value in assay [2] is listed as “reduced inflammasome activation”.
